Results published in US20150344583A1.

Molecular target: human BCMA (huBCMA) on cells (human) (UniProt Q02223)
Test: FACS, H929 cells, negative control

Sequence of human BCMA (huBCMA) on cells (human) (Q02223 whole entry N81S): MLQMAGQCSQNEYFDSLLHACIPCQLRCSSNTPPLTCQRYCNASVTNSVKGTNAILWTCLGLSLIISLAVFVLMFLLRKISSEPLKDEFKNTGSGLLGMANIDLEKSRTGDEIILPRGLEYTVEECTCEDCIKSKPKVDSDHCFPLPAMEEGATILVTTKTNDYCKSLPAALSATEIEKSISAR

MFI: 8 MFI
Substance: hu IgG1 (antibody)
